Experimental data: patent publication US20060252692A1, “Inhibitors for use in hemostasis” (ZymoGenetics, Inc., priority 2002, published 2006)

How the values were obtained:
template bleeding time = test system: template bleeding time; design: species or system Macaca fascicularis; details: cynomolgus monkey, in vivo
Description: In order to evaluate one aspect of the safety of zsig37 and its effect on template bleeding time, a pre-clinical model in Macaca fascicularis was used. Time to cessation of bleeding from standardized incisions on the animal's forearm, a procedure previously described by Wu, et al., Blood, 2002, 99:3623-3628, was employed to assess the effect of zsig37 on bleeding.
Methods. Five female and twelve male, Macaca fascicularis weighing 2.3 to 4.6 kg were used as test subjects on this project. The animals were immobilized with ketamine hydrochloride (Phoenix Scientific) administered intramuscularly at approximately 10 mg/kg. Each animal was examined, and the animal determined to be acceptable for the study. The right forearm, abdomen, ventral neck and inguinal area were shaved free of hair. The animal was transported to the surgical suite (University of Washington Regional Primate Research Center), positioned inside a heated air circulation system and placed onto isoflurane (Abbott Laboratories) inhalation anesthesia delivered through positive pressure ventilation via an endotracheal tube. […] The time to cessation of bleeding was determined and recorded for each animal. Bleeding times were determined for each animal prior to any treatment, after low molecular weight heparin (Lovenox™, Rhone Polenc, Inc.) treatment and after zsig37 treatment.

TF-1 cells = experiment: Adhesion and spreading of TF-1 cells on zsig37-coated plates; assay type: cell-based; details: plates coated in PBS vs 0.1 M NaCO3
Procedure: The ability of zsig37 to stimulate adhesion and spreading of TF-1 cells was assayed as follows. A series of dilutions were prepared from C-terminal Glu-Glu-tagged zsig37, from 10 to 0.0625 ’g/ml, in either PBS or ELISA coating buffer (0.1 M NaCO3) and each was plated into a 96 well plate (Costar; Pleasanton, Calif.) at 100 μl/well. The plates were incubated at 37° C., 5% CO2 for 2 hours. The plates were then washed 3× with RPMI/10% FBS (RPMI 1640, 2 mM L-glutamine, 110 μg/ml sodium pyruvate, PSN and 10% heat inactivated fetal bovine serum) and allowed to block for 15 minutes.
TF-1 cells (derived from acute myeloid leukemia cells) were resuspended in RPMI/10% FBS and plated into at 10,000 cells/well into the zsig37CEE-coated 96 well plates at a final volume of 120 μl/well. The plate was incubated at 37° C. under 5% CO2 for 2 hours. The plates were then washed 3× with PBS and 200 μl/well growth media (RPMI/10% FBS, 5 ng/ml GM-CSF) was added. The cells were microscopically inspected before and after the wash.
A dye incorporation assay was also used to measure the number of adherent cells based on a colorimetric change and an increase in fluorescent signal. ALAMAR BLUE (AccuMed; Chicago, Ill.) was added to the 96 well plates and the cells were incubated at 37° C. under 5% CO2 overnight. […]

## ReoPro: comparator in template bleeding time study, 0.25 mg/kg [reference compound]
Template bleeding time
  template bleeding time vs control (1.0 mg/kg BSA): unable to stop their bleeding

B1: zsig37CEE: zsig37 polypeptide having a C-terminal Glu-Glu tag (protein)
chain: LVLSRVPHVQGEQQEWEGTEELPSPPDHAERAEEQHEKYRPSQDQGLPASRCLRCCDPGTSMYPATAVPQINITILKGEKGDRGDRGLQGKYGKTGSAGARGHTGPKGQKGSMGAPGERCKSHYAAFSVGRKKPMHSNHYYQTVIFDTEFVNLYDHFNMFTGKFYCYVPGLYFFSLNVHTWNQKETYLHIMKNEEEVVILFAQVGDRSIMQSQSLMLELREQDQVWVRLYKGERENAIFSEELDTYITFSGYLVKHATEPEEYMPME
TF-1 cells
  adherent cells (ALAMAR BLUE dye incorporation): more adherent cells on the C-terminal Glu-Glu tagged (zsig37CEE)-PBS coated plates than on the zsig37CEE-0.1 M NaCO3 coated plates
